Source: patent US20240174744A1 (SCIRHOM, published 2024)
Residue numbers refer to the chain shown, from its start.

T1: miR2-FL-WT-FLAG (mouse iRhom2 full length wild type C-terminally tagged with the triple-FLAG epitope) (mouse, UniProt Q80WQ6 1-827)
T1 construct: also called expressed by MEF-DKO-miR2-FL-WT-FLAG cells
T1 sequence: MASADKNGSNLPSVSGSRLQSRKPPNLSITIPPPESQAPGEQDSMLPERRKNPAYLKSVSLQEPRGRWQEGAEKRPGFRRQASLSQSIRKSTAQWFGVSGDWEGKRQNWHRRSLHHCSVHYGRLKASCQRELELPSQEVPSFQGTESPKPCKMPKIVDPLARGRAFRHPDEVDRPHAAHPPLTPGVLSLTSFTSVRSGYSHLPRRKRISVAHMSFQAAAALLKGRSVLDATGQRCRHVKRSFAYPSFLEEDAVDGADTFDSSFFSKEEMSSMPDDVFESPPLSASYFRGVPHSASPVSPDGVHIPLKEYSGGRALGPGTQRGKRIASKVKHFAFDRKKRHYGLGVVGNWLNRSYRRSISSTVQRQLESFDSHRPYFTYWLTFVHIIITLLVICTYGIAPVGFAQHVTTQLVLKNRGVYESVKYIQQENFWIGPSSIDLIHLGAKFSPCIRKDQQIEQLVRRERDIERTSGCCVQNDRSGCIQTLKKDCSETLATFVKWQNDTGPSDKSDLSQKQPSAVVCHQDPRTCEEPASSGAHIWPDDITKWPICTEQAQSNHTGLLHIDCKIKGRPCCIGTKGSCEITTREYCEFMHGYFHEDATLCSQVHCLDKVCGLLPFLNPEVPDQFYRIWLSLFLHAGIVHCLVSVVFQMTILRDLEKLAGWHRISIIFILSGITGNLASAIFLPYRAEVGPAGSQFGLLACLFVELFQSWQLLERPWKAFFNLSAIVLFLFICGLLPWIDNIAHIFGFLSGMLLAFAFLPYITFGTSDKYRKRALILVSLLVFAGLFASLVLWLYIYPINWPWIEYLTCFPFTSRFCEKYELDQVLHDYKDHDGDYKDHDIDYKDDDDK

T2: human iRhom2 (inactive rhomboid protein 2, isoform 1), endogenously expressed on human cells (human, UniProt Q6PJF5 1-856)
T2 sequence: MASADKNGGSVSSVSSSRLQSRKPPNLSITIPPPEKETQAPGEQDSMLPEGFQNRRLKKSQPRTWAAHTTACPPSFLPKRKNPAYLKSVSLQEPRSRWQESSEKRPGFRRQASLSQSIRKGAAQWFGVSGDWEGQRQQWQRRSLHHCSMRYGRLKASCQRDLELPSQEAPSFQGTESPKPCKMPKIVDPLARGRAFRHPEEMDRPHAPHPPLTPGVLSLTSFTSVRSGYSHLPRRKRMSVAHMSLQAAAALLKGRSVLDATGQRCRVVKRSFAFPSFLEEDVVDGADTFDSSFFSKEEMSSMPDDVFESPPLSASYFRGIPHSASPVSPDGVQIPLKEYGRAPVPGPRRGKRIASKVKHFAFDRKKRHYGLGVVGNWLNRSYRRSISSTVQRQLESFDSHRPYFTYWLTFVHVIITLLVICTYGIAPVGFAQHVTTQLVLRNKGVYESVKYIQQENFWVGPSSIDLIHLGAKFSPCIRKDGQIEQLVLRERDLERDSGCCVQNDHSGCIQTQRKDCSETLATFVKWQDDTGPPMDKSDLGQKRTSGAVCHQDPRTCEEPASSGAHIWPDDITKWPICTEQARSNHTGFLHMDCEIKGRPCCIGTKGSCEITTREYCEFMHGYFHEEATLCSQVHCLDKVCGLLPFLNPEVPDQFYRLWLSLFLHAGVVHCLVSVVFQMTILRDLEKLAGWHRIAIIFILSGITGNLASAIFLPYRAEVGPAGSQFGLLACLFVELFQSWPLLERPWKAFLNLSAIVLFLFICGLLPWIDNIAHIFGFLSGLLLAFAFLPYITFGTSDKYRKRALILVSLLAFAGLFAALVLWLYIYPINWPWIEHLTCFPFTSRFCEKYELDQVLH

B1: antibody 34 (antibody, V domains shown)
VH: QVTLKESGPGILQPSQTLSLTCSFSGFSLSTFSLGVGWIRQSSGKGLEWLAHIWWDDEKYYNPALKSRLTISKDTSKNQVFLKIANVDAADTATYYCARAYYSKSYYALDYWGQGTSVTVSS
VL: DIQMTQSPSSLSASLGERVSLTCRASQEISGYLSWLQQKPDGTIKRLIYAASTLDSGVPKRFSGSRSGSDYSLAISSLESEDFADYYCLQYANFPFTFGSGTKLEIK
notes: Mouse IgG, kappa light chain; also called clone #34; m34
B2: antibody 16 (antibody, V domains shown)
VH: QVTLKESGPGILQPSQTLSLTCSFSGFSLSTFALGVGWIRQPSGRGLEWLAHIWWDDDKYYNPALKSRLTISKDTSKNHVFLKIANVDTADTATYYCARITTYYYGMDYWGQGTSVTVSS
VL: DIVLSQSPATLSVTPGDSVSLFCRASQSIGNHLHWYQQESHASPRLLIKYASQSISGIPSRFSGSGSGTDFTLSINSVETEDFGMYFCQQSYNWPLTFGAGTKLELK
notes: Mouse IgG, kappa light chain; also called clone #16; m16
B3: antibody 46 (antibody, V domains shown)
VH: QVTLKESGPGILQPSQTLSLTCSFSGFSLSTFGMGVGWIRQPSGKGLEWLAHIWWDDDNYYNQALKSRLTISKDNTKNQVFLNIANVDTADTATYYCARIRSYDYDVRYAMDYWGQGTSVTVSS
VL: DIKMTQSPSSMYASLRERVTITCKASQDINSYLSWFQQKPGKSPKTLIYRANRLVDGVPSRFSGSGSGQDYSLTISSLEYEDLGIYYCQQYYEFPLTFGAGTRLELK
notes: Mouse IgG, kappa light chain; also called clone #46
B4: antibody 5 (antibody, V domains shown)
VH: QVTLKESGPGILQPSQTLSLTCSFSGFSLSTFGMGVGWIRQPSGKGLEWLAHIWWDDEKYYNSALKSRLTISKATSKNQAFLKIANVDTADTATYYCARISNYGSNYWYFNVWGTGTTVTVSS
VL: QVVLTQSPALMSASPGEKVTMTCSAGSSVSCMYWYQQKPGSSPRVLIYDTSNLASGVPARFTGSGSGTSYSLTISRMEAEDAASYYCQQWNSYPLTFGAGTKLELK
notes: Mouse IgG, kappa light chain; also called clone #5; purified antibody 5
B5: antibody 42 (antibody, V domains shown)
VH: B4 VH with F24L, M34R, S63P, A74D, A80V, K83R, S101Q, N111D
VL: LIVLTQSPAIMSASPGEKVTMTCGATSRISYMFWYQQKPGSSPRVLIYDTSNLASGVPVRFSGSGSGTSYSLTISRVEAEDVATYYCQQWNSYPLTFGAGTKLELK
notes: Mouse IgG, kappa light chain; also called clone #42; m42
B6: antibody 57 (antibody, V domains shown)
VH: B4 VH with E58D, S63P, A74D, A80I, T92S, Y95F, S101E, N111D
VL: B4 VL with V2I, L10I, G26S, C31Y, A59V, T62S, I74V, S84T
notes: Mouse IgG, kappa light chain; also called clone #57
B7: antibody 49 (antibody, V domains shown)
VH: QVTLKESGPGILQPSQTLSLTCSFSGFSLSTFGMGVGWIRQPSGKGLEWLAHIWWDDDKYYNPALQSRLTVSKDTAKNQVFLKIANVDTADTAIYYCARVGNYGSNYWYFAVWGTGTTVTVSS
VL: B4 VL with V2I, L10I, G26S, C31Y, V45L, A59V, T62S, S84T
notes: Mouse IgG, kappa light chain; also called clone #49
B8: antibody 22 (antibody, V domains shown)
VH: B4 VH with A80V
VL: B4 VL with C31Y, S84T
notes: Mouse IgG, kappa light chain; also called clone #22; m22

These binders were tested against T1, miR2-FL-WT-FLAG (mouse iRhom2 full …) (assay: FACS, MEF-DKO-miR2-FL-WT-FLAG cells).
Experimental: In brief, immortalized MEF-DKO-EV control cells, MEF-DKO-hiR2-FL-WT-FLAG cells and MEF-DKO-miR2-FL-WT-FLAG cells were harvested with 10 mM EDTA in PBS, washed and resuspended in FACS buffer (PBS, 3% FBS, 0.05% sodium azide), and seeded in Nunc U-bottom 96-well plates (Thermo Fisher Scientific, USA) at approximately 3×10⁵ cells per well. To pellet cells and remove supernatants, the plates were centrifuged at 1,500 rpm and 4° C. for 3 minutes. For primary staining, cells were resuspended in 100 μl per well of either FACS buffer alone (controls), mouse monoclonal anti-FLAG IgG (Sigma-Aldrich, USA) at 3 μg/ml FACS buffer or the antibodies of the present disclosure also at 3 μg/ml FACS buffer and incubated on ice for 1 hour. Afterwards, plates were centrifuged at 1,500 rpm and 4° C. for 3 minutes and washed twice with 200 μl per well of FACS buffer. For secondary staining, cells were spun down and resuspended in 100 μl per well of PE-conjugated goat anti-mouse IgG F(ab′)2 detection fragment (Dianova, Germany) diluted 1:100 in FACS buffer. Protected from light, the cell suspensions were incubated on ice for 1 hour. Plates were then centrifuged at 1,500 rpm and 4° C. for 3 minutes and washed three times with 200 μl per well of FACS buffer. Finally, cells were resuspended in 150 μl per well of FACS buffer and analyzed using a BD Accuri™ C6 Plus flow cytometer (Becton Dickinson, Germany).

Row | Binder | binding result
1 | B1 | no binding (tested: 3 µg/ml)
2 | B2 | no binding (tested: 3 µg/ml)
3 | B3 | no binding (tested: 3 µg/ml)
4 | B4 | no binding (tested: 3 µg/ml)
5 | B5 | no binding (tested: 3 µg/ml)
6 | B6 | no binding (tested: 3 µg/ml)
7 | B7 | no binding (tested: 3 µg/ml)
8 | B8 | no binding (tested: 3 µg/ml)

Each binder was assayed against T2, human iRhom2 (inactive rhomboid protein …) (assay: cell-based or functional assay).

Row | Binder | inhibition of LPS-induced release of TNFα from THP-1 cells, 10 µg/ml, antibody purified from hybridoma [% inhibition] | inhibition of LPS-induced release of TNFα from THP-1 cells, recombinant antibody [% inhibition] | inhibition of PMA-induced release of HB-EGF from THP-1 cells, 3 µg/ml [% inhibition] | inhibition of PMA-induced release of HB-EGF from U-937 cells [% inhibition] | inhibition of PMA-induced release of IL-6R from THP-1 cells, 1 µg/ml [% inhibition] | inhibition of PMA-induced release of IL-6R from U-937 cells, 1 µg/ml [% inhibition] | inhibition of PMA-induced release of IL-6R from U-937 cells, 3 µg/ml [% inhibition] | inhibition of PMA-induced release of TNFα from U-937 cells, 1 µg/ml [% inhibition] | inhibition of PMA-induced release of TNFα from U-937 cells, 3 µg/ml [% inhibition] | inhibition of LPS-induced release of TNFα from PBMCs of healthy donors, 1 µg/ml [% inhibition]
9 | B1 | 27.3 | 73.8 | 64.2 | 98.2 | 71.1 | 69.3 | 74.6 | 68.6 | 79.9 | 
10 | B2 | 65.4 | 70.7 | 71.9 | 99.6 | 72.5 | 77.7 | 77.4 | 91.6 | 91.9 | 81.3
11 | B3 |  | 36.1 |  |  |  |  |  |  |  | 
12 | B4 | 69 | 70.5 |  |  | 64.1 | 67 |  | 63.6 |  | 
13 | B5 | 76.7 | 75.9 | 76.6 | 104 | 85.9 | 80.8 | 84.4 | 94.5 | 94.1 | 77
14 | B6 |  | 59.7 |  |  |  |  |  |  |  | 
15 | B7 |  | 59.9 |  |  |  |  |  |  |  | 
16 | B8 | 78.8 | 78.4 | 77.7 | 101 | 67.4 | 74.5 | 79 | 86.1 | 93.1 | 72.8

Same assay, conditions: not given

Row | Binder | inhibition of LPS-induced release of TNFα from human macrophages of healthy donors [% inhibition] | inhibition of PMA-induced release of HB-EGF from PBMCs of healthy donors, 1 µg/ml [% inhibition] | inhibition of PMA-induced release of IL-6R from PBMCs of healthy donors, 1 µg/ml [% inhibition] | inhibition of PMA-induced release of TGFα from PC3 cells, 1 µg/ml [% inhibition]
17 | B2 | 85.8 | 71.6 | 84.3 | 13.9
18 | B5 | 93.2 | 77.6 | 85 | 14.3
19 | B8 | 78.8 | 56.5 | 79.3 | 12.7
